These are literature values, as cited in PMC5726918.

The data set concerns the target Asp3 (position 3, ---AADAA---). Kind of data set: potentiometry. Particulars: free peptide in solution.

With AADAA [Alanine-based pentapeptide AADAA (terminally blocked, uncharged) (synthetic)], the pKa is listed as 3.9.

For orientation: pKa means the negative logarithm of the acid dissociation constant.
